What was measured:
[1] = molecular target: AAV9.TQAAA capsid mutant (adeno-associated virus 9 (AAV9), mutant); test: cell-based or functional assay
[2] = molecular target: AAV9.QQNAA capsid mutant (adeno-associated virus 9 (AAV9), mutant); test: cell-based or functional assay
[3] = molecular target: AAV9.SAQAN capsid mutant (adeno-associated virus 9 (AAV9), mutant); test: cell-based or functional assay
[4] = molecular target: AAV9.SSNTA capsid mutant (adeno-associated virus 9 (AAV9), mutant); test: cell-based or functional assay
[5] = molecular target: AAV9.SAQAA capsid mutant (adeno-associated virus 9 (AAV9), mutant); test: cell-based or functional assay
[6] = molecular target: AAV9.WT capsid (AAV9 vector) (adeno-associated virus 9 (AAV9)); test: cell-based or functional assay
[7] = molecular target: AAV9.AAQAA capsid mutant (adeno-associated virus 9 (AAV9), mutant); test: cell-based or functional assay
[8] = molecular target: AAV9.RGHRE capsid mutant (adeno-associated virus 9 (AAV9), mutant); test: cell-based or functional assay
[9] = molecular target: AAV9.RGNRQ capsid mutant (adeno-associated virus 9 (AAV9), mutant); test: cell-based or functional assay
[10] = molecular target: AAV9.RGNRQ capsid mutant (adeno-associated virus 9 (AAV9), mutant); test: capsid capture ELISA, as told in the discussion
[11] = molecular target: AAV9.TQAAA capsid mutant (adeno-associated virus 9 (AAV9), mutant); test: capsid capture ELISA, EC50 from dose-response fit
[12] = molecular target: AAV9.QQNAA capsid mutant (adeno-associated virus 9 (AAV9), mutant); test: capsid capture ELISA, EC50 from dose-response fit
[13] = molecular target: AAV9.SAQAN capsid mutant (adeno-associated virus 9 (AAV9), mutant); test: capsid capture ELISA, EC50 from dose-response fit
[14] = molecular target: AAV9.SSNTA capsid mutant (adeno-associated virus 9 (AAV9), mutant); test: capsid capture ELISA, EC50 from dose-response fit
[15] = molecular target: AAV9.SAQAA capsid mutant (adeno-associated virus 9 (AAV9), mutant); test: capsid capture ELISA, EC50 from dose-response fit
[16] = molecular target: AAV9.WT capsid (AAV9 vector) (adeno-associated virus 9 (AAV9)); test: capsid capture ELISA, EC50 from dose-response fit
[17] = molecular target: AAV9.AAQAA capsid mutant (adeno-associated virus 9 (AAV9), mutant); test: capsid capture ELISA, EC50 from dose-response fit
[18] = molecular target: AAV9.RGHRE capsid mutant (adeno-associated virus 9 (AAV9), mutant); test: capsid capture ELISA, EC50 from dose-response fit
[19] = molecular target: AAV9.RGNRQ capsid mutant (adeno-associated virus 9 (AAV9), mutant); test: capsid capture ELISA, EC50 from dose-response fit

PAV9.1 monoclonal antibody
Fold reduction NAb titer [1]: 16 fold
Fold reduction NAb titer [2]: 128 fold
Fold reduction NAb titer [3]: 16 fold
Fold reduction NAb titer [4]: 512 fold
Fold reduction NAb titer [5]: 4 fold
Fold reduction NAb titer [6]: 1 fold
effective NAb titer (NAb assay, transduction of HEK293 cells) (reciprocal dilution) [6]: 164000
Fold reduction NAb titer [7]: 16 fold
Fold reduction NAb titer [8]: > 2048 fold
NAb titer of PAV9.1 (reciprocal dilution) [8]: < 80
Fold reduction NAb titer [9]: 8 fold
fold reduction in binding (relative to WT.AAV9) [10]: 50 fold
Fold increase EC50 (relative to AAV9.WT) [11]: 15 fold
Fold increase EC50 (relative to AAV9.WT) [12]: 124 fold
Fold increase EC50 (relative to AAV9.WT) [13]: 40 fold
Fold increase EC50 (relative to AAV9.WT) [14]: 264 fold
Fold increase EC50 (relative to AAV9.WT) [15]: 20 fold
Fold increase EC50 (relative to AAV9.WT) [16]: 1 fold
Fold increase EC50 (relative to AAV9.WT) [17]: 45 fold
Fold increase EC50 (relative to AAV9.WT) [18]: 294 fold
Fold increase EC50 (relative to AAV9.WT) [19]: 96 fold

Source: US20200407750A1
